Results from PMC3298473, “Effects of partner proteins on BCA2 RING ligase activity” (BMC Cancer, 2012).

Tests used:
[1] = target: T1, Recombinant Flag-BCA2, wild type, purified (human, UniProt Q9Y4L5 1-304); test: pull-down; purified recombinant Flag-BCA2 (wild type or mutants) incubated with sepharose-immobilised GST control or GST-14-3-3σ from bacterial cell lysates; immunoblot; settings: both partners purified
T1 construct: BCA2, a 304 amino acid protein; also called Purified recombinant wild-type BCA2; source: recombinant, purified
T1 sequence (Q9Y4L5 whole entry): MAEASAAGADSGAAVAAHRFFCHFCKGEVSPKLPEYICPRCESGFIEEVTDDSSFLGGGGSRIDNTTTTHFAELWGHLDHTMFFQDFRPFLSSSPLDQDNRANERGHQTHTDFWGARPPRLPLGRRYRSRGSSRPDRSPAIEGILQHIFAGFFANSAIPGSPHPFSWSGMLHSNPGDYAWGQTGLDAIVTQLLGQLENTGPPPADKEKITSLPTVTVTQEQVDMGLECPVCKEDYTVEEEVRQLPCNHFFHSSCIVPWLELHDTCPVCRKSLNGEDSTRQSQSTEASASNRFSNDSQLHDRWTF

[2] = target: T2, Recombinant Flag-BCA2 RING mutant (C228/231A), purified (human, UniProt Q9Y4L5 1-304, C228/231A | C228/231A); test: as above; settings: both partners purified
T2 construct: BCA2, a 304 amino acid protein, with C228A and C231A in the RING domain (ligase-dead); also called RING mt; source: recombinant, purified
T2 sequence (Q9Y4L5 other isoform, or with tags, fused parts or gaps C228/231A | C228/231A | C228/231A | C228/231A | mutant): as the sequence (Q9Y4L5 whole entry) above, with C228A, C231A counted along it

- binding result [1]: binds
- binding result [2]: binds
B1: GST-tagged 14-3-3σ (natural protein, human, UniProt P31947 1-248, looked up)
chain: MERASLIQKAKLAEQAERYEDMAAFMKGAVEKGEELSCEERNLLSVAYKNVVGGQRAAWRVLSSIEQKSNEEGSEEKGPEVREYREKVETELQGVCDTVLGLLDSHLIKEAGDAESRVFYLKMKGDYYRYLAEVATGDDKKRIIDSARSAYQEAMDISKKEMPPTNPIRLGLALNFSVFHYEIANSPEEAISLAKTTFDEAMADLHTLSEDSYKDSTLIMQLLRDNLTLWTADNAGEEGGEAPQEPQS
notes: 14-3-3σ; the GST construct is not described in the methods; also called GST-14-3-3σ; source: bacterial cell lysates, immobilised on sepharose
